Experimental data: article PMC10348681, “Reversible phase separation of ESCRT protein ALIX through tyrosine phosphorylation” (Science Advances, 2023)
Substitutions are numbered along the chain they refer to. Names and notes keep the numbering of the source.

T1: ALIX1−868∗^Strep (full-length ALIX with P801G and a C-terminal strep tag) (UniProt Q8WUM4 1-868, P801G)
T1 construct: the asterisk denotes P801G; Monomeric by AUC; source: E. coli, purified (Strep-Tactin Sepharose, Q-Sepharose HP, Superdex 200); not shown: Strep tag, C-terminal, kept
T1 sequence (looked up): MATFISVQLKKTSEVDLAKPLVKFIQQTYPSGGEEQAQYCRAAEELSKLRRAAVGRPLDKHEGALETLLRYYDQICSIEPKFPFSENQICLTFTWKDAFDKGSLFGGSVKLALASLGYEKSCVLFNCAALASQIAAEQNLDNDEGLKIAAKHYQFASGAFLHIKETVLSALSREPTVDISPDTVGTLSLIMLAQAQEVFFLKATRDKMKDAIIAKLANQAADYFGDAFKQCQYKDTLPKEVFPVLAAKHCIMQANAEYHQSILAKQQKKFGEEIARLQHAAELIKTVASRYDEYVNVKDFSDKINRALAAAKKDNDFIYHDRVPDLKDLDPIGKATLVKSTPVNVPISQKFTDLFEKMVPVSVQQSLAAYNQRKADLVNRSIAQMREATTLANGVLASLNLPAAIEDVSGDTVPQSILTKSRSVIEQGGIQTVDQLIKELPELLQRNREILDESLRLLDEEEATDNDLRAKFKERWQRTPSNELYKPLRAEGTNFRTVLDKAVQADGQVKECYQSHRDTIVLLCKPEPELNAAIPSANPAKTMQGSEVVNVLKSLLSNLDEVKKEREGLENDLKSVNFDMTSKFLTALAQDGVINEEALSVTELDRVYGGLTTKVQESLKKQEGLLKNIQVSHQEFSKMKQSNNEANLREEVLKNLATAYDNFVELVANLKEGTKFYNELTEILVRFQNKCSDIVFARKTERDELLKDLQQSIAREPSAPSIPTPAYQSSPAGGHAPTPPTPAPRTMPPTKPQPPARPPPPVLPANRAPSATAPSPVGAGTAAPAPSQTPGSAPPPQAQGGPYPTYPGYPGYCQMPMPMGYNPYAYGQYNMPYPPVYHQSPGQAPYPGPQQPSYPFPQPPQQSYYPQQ

T2: ALIX-Bro1 (Bro1 domain of ALIX) (UniProt Q8WUM4 3-392)
T2 construct: Bro1 domain of ALIX; residues up to 349 are spoken of
T2 sequence (looked up): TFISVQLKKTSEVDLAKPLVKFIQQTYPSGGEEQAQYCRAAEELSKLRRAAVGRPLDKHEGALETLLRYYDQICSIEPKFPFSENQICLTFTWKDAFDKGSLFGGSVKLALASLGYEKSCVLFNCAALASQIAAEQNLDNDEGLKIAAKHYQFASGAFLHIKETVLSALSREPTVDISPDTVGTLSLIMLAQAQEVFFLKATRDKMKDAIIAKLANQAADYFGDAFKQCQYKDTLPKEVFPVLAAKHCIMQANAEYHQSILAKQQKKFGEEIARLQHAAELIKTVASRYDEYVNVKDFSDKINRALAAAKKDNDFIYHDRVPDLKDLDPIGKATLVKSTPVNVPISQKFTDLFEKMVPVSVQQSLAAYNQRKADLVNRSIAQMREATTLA

B1: CHMP4C121−233^S191C,AAA (domain or fragment, UniProt Q96CF2 121-233, looked up)
chain: ENMDLNKIDDLMQEITEQQDIAQEISEAFSQRVGFGDDFDEDELMAELEELEQEELNKKMTNIRLPNVPSCSLPAQPNRKPGMSSTARRSRAASSQRAEEEDDDAKQAAAAAT
notes: codon-optimized synthetic gene; also called CHMP4C with three alanine substitutions in its α6 motif (I225A, L228A, W231A); not shown: GB1, N-terminal, cleaved
B2: CHMP4C121−233^S191C (domain or fragment, UniProt Q96CF2 121-233, looked up)
chain: B1 chain with A105I, A108L, A111W
notes: codon-optimized synthetic gene; Monomeric by AUC; also called charged multivesicular body protein 4C C-terminal fragment; not shown: GB1, N-terminal, cleaved
B3: CHMP4B121−224^S184C (domain or fragment, UniProt Q9H444 121-224, looked up)
chain: DNMDIDKVDELMQDIADQQELAEEISTAISKPVGFGEEFDEDELMAELEELEQEELDKNLLEICGPETVPLPNVPSIALPSKPAKKKEEEDDDMKELENWAGSM
notes: codon-optimized synthetic gene; Monomeric by AUC; also called charged multivesicular body protein 4B C-terminal fragment; not shown: GB1, N-terminal, cleaved

Assays:
Settings in all cases: both partners purified
[1] = target: T1, ALIX1−868∗^Strep (full-length ALIX with …); assay: NMR titration; 30 μM 15N/2H-labeled CHMP4 construct with 90 μM unlabeled ALIX1-868* Strep; cross-peak heights; 30°C, 20 mM sodium phosphate (pH 6.5), 1 mM TCEP, 2 mM EDTA
[2] = target: T1, ALIX1−868∗^Strep (full-length ALIX with …); assay: ITC; as the other ITC but with 150 mM NaCl; CHMP4C construct injected into ALIX1-868* Strep; 25°C; for the AAA mutant 1500 μM into 300 μM ALIX
[3] = target: T1, ALIX1−868∗^Strep (full-length ALIX with …); assay: ITC; 300 to 500 μM CHMP4 construct injected into 30 to 50 μM ALIX1-868* Strep or Bro1 in the cell; 25°C; 20 mM sodium phosphate (pH 6.5), 1 mM TCEP, 2 mM EDTA; independent site binding model
[4] = target: T2, ALIX-Bro1 (Bro1 domain of ALIX); assay: as above

Binder	binding result [1]	Kd [2] [nM]	Kd [3] [nM]	stoichiometry N [3]	Kd [4] [nM]
B1	binds				
B2		6100 ± 700	600 ± 100	~1	900 ± 100
B3			900 ± 100	~1	1000 ± 200
